Read-outs that look alike come from different tables or passages of the source.
T1: FcgRIIa R (FcγRIIa type R) extracellular domain with C-terminal His tag (human, UniProt P12318 34-217)
T1 construct: extracellular domain; also called FcγRIIa R; not shown: His tag attached to the C terminus
T1 sequence (looked up): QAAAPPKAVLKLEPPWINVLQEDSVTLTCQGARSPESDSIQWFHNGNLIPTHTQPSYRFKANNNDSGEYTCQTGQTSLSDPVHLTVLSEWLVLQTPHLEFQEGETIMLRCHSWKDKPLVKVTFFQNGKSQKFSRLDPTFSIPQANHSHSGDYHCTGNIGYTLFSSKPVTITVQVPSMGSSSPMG

T2: FcgRIIa H (FcγRIIa type H) extracellular domain with C-terminal His tag (human, UniProt P12318 34-217)
T2 construct: extracellular domain; also called FcγRIIa H; not shown: His tag attached to the C terminus
T2 sequence (looked up): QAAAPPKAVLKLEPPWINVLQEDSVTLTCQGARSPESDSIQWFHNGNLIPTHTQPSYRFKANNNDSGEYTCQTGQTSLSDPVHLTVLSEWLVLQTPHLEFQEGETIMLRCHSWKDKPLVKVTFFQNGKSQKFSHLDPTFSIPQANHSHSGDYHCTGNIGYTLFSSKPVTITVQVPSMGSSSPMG

T3: FcgRIIb (FcγRIIb) extracellular domain with C-terminal His tag (human, UniProt P31994 43-217)
T3 construct: extracellular domain; not shown: His tag attached to the C terminus
T3 sequence (looked up): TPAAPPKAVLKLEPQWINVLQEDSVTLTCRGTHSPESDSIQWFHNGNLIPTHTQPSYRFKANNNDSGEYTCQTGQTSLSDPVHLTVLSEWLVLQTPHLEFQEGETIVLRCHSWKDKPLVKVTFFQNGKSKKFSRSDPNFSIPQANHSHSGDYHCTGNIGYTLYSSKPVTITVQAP

B1: H240-Kn061/H240-Hl071/L73-k0 variant with Y235P in H240-Kn061 (antibody, human IgG1, kappa)
heavy 1: QDQLVQSGAEVKKPGASVKVSCKASGFNIKDTYIQWVRQAPGQGLEWMGRIDPLRKQTKYREKFEGRVTITADTSTNTAYMELSSLRSEDTAVYYCVRSGREFDYWGQGTLVTVSSASTKGPSVFPLAPSSKSTSGGTAALGCLVKDYFPEPVTVSWNSGALTSGVHTFPAVLQSSGLYSLSSVVTVPSSSLGTQTYICNVNHKPSNTKVDKKVEPKSCDKTHTCPPCPAPEYPWGPSVFLFPPKPKDTLMISRTPEVTCVVVDVSDEDPEVKFNWYVDGVEVHNAKTKPREEQYNATYRVVSVLTVLHQDWLNGKEYKCKVSNKALPAPIEKTISKAKGQPREPQVCTLPPSRDELTKNQVSLWCLVKGFYPSDIAVEWESNGQPENNYKTTPPVLDSDGSFFLYSKLTVDKSRWQQGNVFSCSVMHEALHNHYTQKSLSLSP
heavy 2: QDQLVQSGAEVKKPGASVKVSCKASGFNIKDTYIQWVRQAPGQGLEWMGRIDPLRKQTKYREKFEGRVTITADTSTNTAYMELSSLRSEDTAVYYCVRSGREFDYWGQGTLVTVSSASTKGPSVFPLAPSSKSTSGGTAALGCLVKDYFPEPVTVSWNSGALTSGVHTFPAVLQSSGLYSLSSVVTVPSSSLGTQTYICNVNHKPSNTKVDKKVEPKSCDKTHTCPPCPAPELLGGPSVFLFPPKPKDTLMISRTPEVTCVVVDVSHEDPEVKFNWYVDGVEVHNAKTKPREEQYNSTYRVVSVLTVLHQDWLNGKEYKCKVSNDALPMPIEETISKAKGQPREPQVYTLPPSRCELTKNQVSLSCAVKGFYPSDIAVEWESNGQPENNYKTTPPVLDSDGSFFLVSKLTVDKSRWQQGNVFSCSVMHEALHNHYTQKSLSLSP
light: DIQMTQSPSSLSASVGDRVTITCRASQDIHKYIAWYQQKPGQAPRLLIQYTSTLQPGVPSRFSGSGSGTDYTFTISSLQPEDIATYYCLQYEQLRTFGGGTKVEIKRTVAAPSVFIFPPSDEQLKSGTASVVCLLNNFYPREAKVQWKVDNALQSGNSQESVTEQDSKDSTYSLSSTLTLSKADYEKHKVYACEVTHQGLSSPVTKSFNRGEC
notes: anti-epiregulin heterodimerized IgG1; also called H240-Kn061 Y235P
B2: H240-Kn061/H240-Hl071/L73-k0 variant with Y235V in H240-Kn061 (antibody, human IgG1, kappa)
heavy 1: QDQLVQSGAEVKKPGASVKVSCKASGFNIKDTYIQWVRQAPGQGLEWMGRIDPLRKQTKYREKFEGRVTITADTSTNTAYMELSSLRSEDTAVYYCVRSGREFDYWGQGTLVTVSSASTKGPSVFPLAPSSKSTSGGTAALGCLVKDYFPEPVTVSWNSGALTSGVHTFPAVLQSSGLYSLSSVVTVPSSSLGTQTYICNVNHKPSNTKVDKKVEPKSCDKTHTCPPCPAPEYVWGPSVFLFPPKPKDTLMISRTPEVTCVVVDVSDEDPEVKFNWYVDGVEVHNAKTKPREEQYNATYRVVSVLTVLHQDWLNGKEYKCKVSNKALPAPIEKTISKAKGQPREPQVCTLPPSRDELTKNQVSLWCLVKGFYPSDIAVEWESNGQPENNYKTTPPVLDSDGSFFLYSKLTVDKSRWQQGNVFSCSVMHEALHNHYTQKSLSLSP
heavy 2: QDQLVQSGAEVKKPGASVKVSCKASGFNIKDTYIQWVRQAPGQGLEWMGRIDPLRKQTKYREKFEGRVTITADTSTNTAYMELSSLRSEDTAVYYCVRSGREFDYWGQGTLVTVSSASTKGPSVFPLAPSSKSTSGGTAALGCLVKDYFPEPVTVSWNSGALTSGVHTFPAVLQSSGLYSLSSVVTVPSSSLGTQTYICNVNHKPSNTKVDKKVEPKSCDKTHTCPPCPAPELLGGPSVFLFPPKPKDTLMISRTPEVTCVVVDVSHEDPEVKFNWYVDGVEVHNAKTKPREEQYNSTYRVVSVLTVLHQDWLNGKEYKCKVSNDALPMPIEETISKAKGQPREPQVYTLPPSRCELTKNQVSLSCAVKGFYPSDIAVEWESNGQPENNYKTTPPVLDSDGSFFLVSKLTVDKSRWQQGNVFSCSVMHEALHNHYTQKSLSLSP
light: DIQMTQSPSSLSASVGDRVTITCRASQDIHKYIAWYQQKPGQAPRLLIQYTSTLQPGVPSRFSGSGSGTDYTFTISSLQPEDIATYYCLQYEQLRTFGGGTKVEIKRTVAAPSVFIFPPSDEQLKSGTASVVCLLNNFYPREAKVQWKVDNALQSGNSQESVTEQDSKDSTYSLSSTLTLSKADYEKHKVYACEVTHQGLSSPVTKSFNRGEC
notes: anti-epiregulin heterodimerized IgG1; also called H240-Kn061 Y235V
B3: H240-Kn061/H240-Hl071/L73-k0 variant with Y235Q in H240-Kn061 (antibody, human IgG1, kappa)
heavy 1: QDQLVQSGAEVKKPGASVKVSCKASGFNIKDTYIQWVRQAPGQGLEWMGRIDPLRKQTKYREKFEGRVTITADTSTNTAYMELSSLRSEDTAVYYCVRSGREFDYWGQGTLVTVSSASTKGPSVFPLAPSSKSTSGGTAALGCLVKDYFPEPVTVSWNSGALTSGVHTFPAVLQSSGLYSLSSVVTVPSSSLGTQTYICNVNHKPSNTKVDKKVEPKSCDKTHTCPPCPAPEYQWGPSVFLFPPKPKDTLMISRTPEVTCVVVDVSDEDPEVKFNWYVDGVEVHNAKTKPREEQYNATYRVVSVLTVLHQDWLNGKEYKCKVSNKALPAPIEKTISKAKGQPREPQVCTLPPSRDELTKNQVSLWCLVKGFYPSDIAVEWESNGQPENNYKTTPPVLDSDGSFFLYSKLTVDKSRWQQGNVFSCSVMHEALHNHYTQKSLSLSP
heavy 2: QDQLVQSGAEVKKPGASVKVSCKASGFNIKDTYIQWVRQAPGQGLEWMGRIDPLRKQTKYREKFEGRVTITADTSTNTAYMELSSLRSEDTAVYYCVRSGREFDYWGQGTLVTVSSASTKGPSVFPLAPSSKSTSGGTAALGCLVKDYFPEPVTVSWNSGALTSGVHTFPAVLQSSGLYSLSSVVTVPSSSLGTQTYICNVNHKPSNTKVDKKVEPKSCDKTHTCPPCPAPELLGGPSVFLFPPKPKDTLMISRTPEVTCVVVDVSHEDPEVKFNWYVDGVEVHNAKTKPREEQYNSTYRVVSVLTVLHQDWLNGKEYKCKVSNDALPMPIEETISKAKGQPREPQVYTLPPSRCELTKNQVSLSCAVKGFYPSDIAVEWESNGQPENNYKTTPPVLDSDGSFFLVSKLTVDKSRWQQGNVFSCSVMHEALHNHYTQKSLSLSP
light: DIQMTQSPSSLSASVGDRVTITCRASQDIHKYIAWYQQKPGQAPRLLIQYTSTLQPGVPSRFSGSGSGTDYTFTISSLQPEDIATYYCLQYEQLRTFGGGTKVEIKRTVAAPSVFIFPPSDEQLKSGTASVVCLLNNFYPREAKVQWKVDNALQSGNSQESVTEQDSKDSTYSLSSTLTLSKADYEKHKVYACEVTHQGLSSPVTKSFNRGEC
notes: anti-epiregulin heterodimerized IgG1; also called H240-Kn061 Y235Q

What was measured:
Test in all cases: SPR (Biacore); KD of H240-Kn061/H240-Hl071/L73-k0 divided by KD of the variant
[1] = target: T1, FcgRIIa R (FcγRIIa type R) …
[2] = target: T2, FcgRIIa H (FcγRIIa type H) …
[3] = target: T3, FcgRIIb (FcγRIIb) extracellular domain …
[4] = target: T4, FcgRIIIa F (FcγRIIIa type F) extracellular domain with C-terminal His tag (human, UniProt P08637 17-208)
T4 construct: extracellular domain; also called FcγRIIIa F; 3aF; not shown: His tag attached to the C terminus

[5] = target: T5, FcgRIIIa V (FcγRIIIa type V) extracellular domain with C-terminal His tag (human, UniProt P08637 17-208)
T5 construct: extracellular domain; also called FcγRIIIa V; not shown: His tag attached to the C terminus

[6] = target: T3, FcgRIIb (FcγRIIb) extracellular domain …; remark: listed apart in the source
[7] = target: T4, FcgRIIIa F (FcγRIIIa type F) …; remark: listed apart in the source
[8] = target: T5, FcgRIIIa V (FcγRIIIa type V) …; remark: listed apart in the source

T5 sequence (P08637 17-208 F176V limits assumed): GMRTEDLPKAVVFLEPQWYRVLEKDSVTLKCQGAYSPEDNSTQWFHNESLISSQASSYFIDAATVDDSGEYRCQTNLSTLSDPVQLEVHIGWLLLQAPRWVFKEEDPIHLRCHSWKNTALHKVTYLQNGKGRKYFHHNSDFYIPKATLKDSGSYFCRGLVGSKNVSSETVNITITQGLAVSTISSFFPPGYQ
T4 sequence (P08637 17-208): as the sequence (P08637 17-208 F176V limits assumed) above, with V160F counted along it

| Binder | relative KD [1] [ratio] | relative KD [2] [ratio] | relative KD [3] [ratio] | relative KD [4] [ratio] | relative KD [5] [ratio] | relative KD [6] [ratio] | relative KD [7] [ratio] | relative KD [8] [ratio] |
| --- | --- | --- | --- | --- | --- | --- | --- | --- |
| B1 | 0.6 | 0.4 | 0.5 | 1.1 | 1.5 | 0.5 | 1.1 | 1.5 |
| B2 | 0.5 | 0.4 | 0.2 | 1.2 | 1.3 | 0.2 | 1.2 | 1.3 |
| B3 | 0.8 | 0.4 | 0.1 | 1 | 1.3 | 0.1 | 1 | 1.3 |

Reference: patent US20150344570A1 (published 2015)
